The text below walks through data of US20250361305A1 (ORIONIS BIOSCIENCES, published 2025).

Residue numbers refer to the chain shown, from its start.

Sequences and labels used below:
B1: 2PD82 (VHH)
VHH: QVQLQESGGGLVQPGGSLRLSCTTSGFAFGSYDMGWVRQAPGKGPEWVSGINSGGRITDYADSVTGRFTISRDNAKNTLYLQMNSLKPEDTAVYYCAQGDRSSWHYYGMDYWGKGTQVTVSS
notes: PD-1 VHH
B2: 2PD-12 (VHH)
VHH: QVQLQESGGGLVQAGGSLRLSCAVSGFILDYYGIGWFRQAPGKEREAVSCISSSDGSTYYADSVKGRFTISRDNALNTLYLQMNSLKPEDTAVYHCATATLCDGGIWGYWGQGTQVTVSS
notes: PD-1 VHH
B3: 3PD82 (VHH)
VHH: B2 VHH with L11S, A14P, H95Y
notes: PD-1 VHH
B4: 3PD55 (VHH)
VHH: B2 VHH with V12A, A23E, V24G, F27L, I28S, Y32D, I34V, D73G, H95Y
notes: PD-1 VHH
B5: 2PD-152 (VHH)
VHH: QVQLQESGGGLVQTGESLRLSCAASGIIKSINFMGWYRQPPGTKRELVASTTSDGRTTVADSVKGRFTISRDNAKNTIYLEMSSLKPEDTATYWCNADIWLPSDRMYNYWGQGTQVTVSS
notes: PD-1 VHH
B6: 2PD8 (VHH)
VHH: QVQLQESGGGSVQAGDSLRLSCTASGRTFSSLGMGWFRQAPGKEREFVSAIAWNGASTYYTESVKGRFTISRDDAKNTVYLQMNSLKPTDTAVYFCAASGLGSVVVTANEYDYWGQGTQVTVSS
notes: PD-1 VHH
B7: 2PD27 (VHH)
VHH: B6 VHH with A14P, D16K, T23A
notes: PD-1 VHH
B8: 2LIG27 VHH-(His)6 (pHEN6C-PelB-PD-L1 VHH-(His)6) (VHH)
VHH: QVQLQESGGGVVQAGGSLRLSCTASGTIFSINRMDWFRQAPGKQRELVALITSDGTPTYADSAKGRFTISRDNTKKTVSLQMNSLKPEDTAVYYCHVSSGVYNYWGQGTQVTVSS
B9: 2LIG3 VHH-(His)6 (pHEN6C-PelB-PD-L1 VHH-(His)6) (VHH)
VHH: B8 VHH with V11L, R33H, T56F
B10: 2LIG99 VHH-(His)6 (pHEN6C-PelB-PD-L1 VHH-(His)6) (VHH)
VHH: B8 VHH with V11L, T58A
B11: 3LIG8 VHH-(His)6 (pHEN6C-PelB-PD-L1 VHH-(His)6) (VHH)
VHH: B8 VHH with V11L, A14P
B12: 2LIG97 VHH-(His)6 (pHEN6C-PelB-PD-L1 VHH-(His)6) (VHH)
VHH: B8 VHH with V11L, G16E
B13: 2LIG176 VHH-(His)6 (pHEN6C-PelB-PD-L1 VHH-(His)6) (VHH)
VHH: QVQLQESGGGLVQAGGSLRLSCAASESIFSIEAMGWYRQAPGKQRELVAAIFGGGFTNYADSVKGRFTISRDNANRTVYLQMNSLKPEDTAVYYCNADLVSGSSRLYDYWGQGTQVTVSS
B14: 2LIG189 VHH-(His)6 (pHEN6C-PelB-PD-L1 VHH-(His)6) (VHH)
VHH: QVQLQESGGGLVQAGGSLRLSCAASGKIFSGNDMGWYRQAPGKQRELVGIITSGGITDYADAVKGRFTISRDNAKNMMYLQMNSLKPEDTAVYYCNMRDRTIWWGQGTQVTVSS

T4 sequence (Q9NZQ7 19-238): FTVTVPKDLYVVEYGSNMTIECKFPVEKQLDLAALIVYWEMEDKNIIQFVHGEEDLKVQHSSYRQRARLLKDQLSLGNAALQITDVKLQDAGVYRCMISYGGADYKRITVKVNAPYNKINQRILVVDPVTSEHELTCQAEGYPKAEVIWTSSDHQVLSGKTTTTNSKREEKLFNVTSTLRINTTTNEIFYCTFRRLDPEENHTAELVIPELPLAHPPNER

The target of one assay is T1, PD-1 antigen (ELISA of Example 2) (human, UniProt Q15116 25-167, limits assumed). Kind of assay: ELISA, signal on PD-1 antigen.
T1 sequence (Q15116 25-167 limits assumed): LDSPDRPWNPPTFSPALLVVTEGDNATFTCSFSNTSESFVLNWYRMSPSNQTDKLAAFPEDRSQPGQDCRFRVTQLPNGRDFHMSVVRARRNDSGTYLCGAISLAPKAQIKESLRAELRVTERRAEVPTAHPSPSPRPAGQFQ
B1: the “ELISA A” value stood at 2.97.

As to B2, the “ELISA A” value stood at 3.81.

In the case of B3, the “ELISA A” value is 4.

Consider B4, for which the “ELISA A” value amounted to 3.58.

With B5, the “ELISA A” value is 2.31.

As for B6, the “ELISA A” value stood at 0.763.

Consider B7, for which the “ELISA A” value turned out to be 1.14.

For the next assay, the target named is T1, PD-1 antigen (ELISA of Example 2). Kind of assay: ELISA, signal on PD-1 antigen over control.
Molecule B1 displayed an A/control of 4.38.

Molecule B2 displayed an A/control of 21.5.

For B3, the A/control came out at 45.1.

B4 showed an A/control of 40.4.

Molecule B5 returned an A/control of 6.38.

The molecule B6 yielded an A/control of 3.03.

Regarding B7, the A/control is 3.45.

The target of the next assay is T2, human PD-L1-Fc (SinoBiological) (human, UniProt Q9NZQ7 19-239).
T2 construct: Bought; not shown: Fc of a bought fusion protein
T2 sequence (Q9NZQ7 19-239 limits assumed): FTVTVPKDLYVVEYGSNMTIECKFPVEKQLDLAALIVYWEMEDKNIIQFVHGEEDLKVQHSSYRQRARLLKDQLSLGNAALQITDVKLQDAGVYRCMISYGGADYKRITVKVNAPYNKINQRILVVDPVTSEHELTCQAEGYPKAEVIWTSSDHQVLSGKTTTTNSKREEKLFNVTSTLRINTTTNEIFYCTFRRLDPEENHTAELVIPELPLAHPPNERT
Kind of assay: BLI (Octet RED96), VHH on Penta-HIS sensor, human PD-L1-Fc in solution.
Regarding B8, the Kd stood at 7.51 nM, the koff was found to be 0.0035 s⁻¹ and the kon is 472000 M⁻¹ s⁻¹.

As for B9, the Kd amounted to 1.19 nM, the koff came out at 0.000448 s⁻¹ and the on-rate (kon) amounted to 373000 M⁻¹ s⁻¹.

As to B10, the Kd turned out to be 0.875 nM, the koff was found to be 0.000634 s⁻¹ and the kon is 729000 M⁻¹ s⁻¹.

B11 yielded a Kd of 8.77 nM, a koff of 0.00419 s⁻¹ and a kon of 484000 M⁻¹ s⁻¹.

Regarding B12, the Kd was found to be 4.35 nM, the koff was determined as 0.00198 s⁻¹ and the kon was determined as 423000 M⁻¹ s⁻¹.

In the case of B13, binding was put at a Kd of 6.87 nM, the koff is 0.00805 s⁻¹ and the kon came to 1.18e+06 M⁻¹ s⁻¹.

Consider B14, for which the Kd came to 3.03 nM, the koff is 0.000524 s⁻¹ and the kon was determined as 174000 M⁻¹ s⁻¹.

For a further assay, the target named is T3, cynomolgus PD-L1-Fc (SinoBiological) (cynomolgus, UniProt G7PSE7 19-238).
T3 construct: Bought; also called Cyno PD-L1; not shown: Fc carrier (and any linker) of the bought SinoBiological fusion
T3 sequence (G7PSE7 entry or part of it limits assumed): as the sequence (Q9NZQ7 19-238) above, with A33T, A34S, S62N, R68Q, Q82R, F173L, T185A, T192I, H215L counted along it
Kind of assay: BLI (Octet RED96), VHH on Penta-HIS sensor, cynomolgus PD-L1-Fc in solution.
With B8, the Kd was found to be 8.74 nM, the koff was 0.0028 s⁻¹ and the kon turned out to be 321000 M⁻¹ s⁻¹.

Take B9: binding was characterised by a dissociation constant (Kd) of 0.89 nM, the koff worked out at 0.000318 s⁻¹ and the kon was determined as 358000 M⁻¹ s⁻¹.

B10 came in with a Kd of 1.01 nM, a koff of 0.000585 s⁻¹ and a kon of 584000 M⁻¹ s⁻¹.

With B11, the Kd worked out at 5.98 nM, the koff was found to be 0.00305 s⁻¹ and the on-rate (kon) was found to be 812000 M⁻¹ s⁻¹.

Molecule B12 displayed a Kd of 9.16 nM, a koff of 0.00293 s⁻¹ and a kon of 319000 M⁻¹ s⁻¹.

Molecule B13 showed a Kd of 11.3 nM, a koff of 0.00573 s⁻¹ and a kon of 508000 M⁻¹ s⁻¹.

Molecule B14 returned a Kd of 3.8 nM, a koff of 0.000437 s⁻¹ and a kon of 114000 M⁻¹ s⁻¹.

Another assay addresses T4, recombinant extracellular domain of PD-L1 with C-terminal FLAG-tag (human, UniProt Q9NZQ7 19-238).
T4 construct: extracellular domain; The sentence itself names no species; Immobilised through the M2 anti-FLAG antibody; not shown: C-terminal FLAG-tag
Kind of assay: plate binding assay, VHH against hPD-1-hFc binding to immobilised PD-L1 ECD-FLAG.
As for B8, the half-inhibitory concentration (IC50) was 9.57 ng/mL.

As for B9, the IC50 stood at 18.9 ng/mL.

In the case of B10, the IC50 came out at 6.21 ng/mL.

With B11, the IC50 stood at 12.8 ng/mL.

As for B12, the concentration for half-maximal inhibition (IC50) amounted to 4.81 ng/mL.

For B13, the half-maximal inhibitory concentration (IC50) is 5.68 ng/mL.

Turning to B14, the IC50 was found to be 8.81 ng/mL.
